B1: 20E2B-1-A8-IGFR (peptide)
peptide: TLRSPTFYDWLEMVLTHGQGG
notes: on phage
B2: 20E2B-4-H9-IGFR (peptide)
peptide: RCQGTGFYTCIQELIGFGDPD
notes: on phage
B3: H2CA-4-F7-IGFR (peptide)
peptide: SSIGGGFHENFYDWFSRQLSQSPPLK
notes: on phage
B4: 20E2B-3-D6-IGFR (peptide)
peptide: DSVGDNFYQLLESLVGGHGVG
notes: on phage
B5: NNRPγ-4-A1-IR (peptide)
peptide: IIGGFYSYFNSVLRLGT
notes: on phage
B6: H2CA-1-A3-IGFR (peptide)
peptide: APDPSDFQEIFYDWFVRQVSRMPGGG
notes: on phage
B7: NNRPγ-4-A9-IR (peptide)
peptide: EGSGFYGYFFSLLGLQG
notes: on phage
B8: B6Hα-3-E7-IR (peptide)
peptide: GCAVVEEAERSRGDPFYHKLSELIQGC
notes: on phage
B9: 20E2B-3-C4-IGFR (peptide)
peptide: ASSASGFYELLQRLAGLGLEV
notes: on phage
B10: B6Hα-2-C10-IR (peptide)
peptide: SGAKVIVVTGDSGDPFYHKLSELLQGS
notes: on phage
B11: B6Hα-1-B3-IR (peptide)
peptide: GCITAENGAGDPFYHKLSELGGCS
notes: library tags and phage coat protein not included
B12: 20E2A-3-A12-IGFR (peptide)
peptide: LSVALSFYDALGQLVAGEGRW
notes: on phage
B13: 20E2B-2-B7-IGFR (peptide)
peptide: LSSDGQFYRALNLLLQGSAGR
notes: on phage
B14: H2CA-4-F1-IGFR (peptide)
peptide: FYVQQWGHENFYDWFDRQVSQSGGAG
notes: on phage
B15: B6Hα-3-F7-IR (peptide)
peptide: SRVAATKEKRPSDDPFYHKLSELLQGS
notes: as for B11
B16: E4Dα-4-H2-IR (peptide)
peptide: GFREGNFYEWFQAQVT
notes: on phage
B17: 20E2B-4-G11-IGFR (peptide)
peptide: RQGTGSFYLMLEQLLVGARGP
notes: on phage
B18: 20C-3-E4-IGFR (peptide)
peptide: FFYRCLSRLLGGQLGSRLGLSCIGD
notes: on phage
B19: H2CA-3-D7-IGFR (peptide)
peptide: LRRQAPVEENFYDWFVRQVSGDRVGG
notes: on phage
B20: 20E2A-3-C7-ICFR (peptide)
peptide: VGTVAGFYDAIAQLVARASRV
notes: on phage
B21: H2CA-4-G9-IGFR (peptide)
peptide: GIISQSCPESFYDWFAGQVSDPWWCW
notes: on phage
B22: B6Hα-4-G8-IR (peptide)
peptide: GGTKAVAKVGTRDDPFYHKLSELLQGS
notes: on phage
B23: H2CA-4-H4-IGFR (peptide)
peptide: QAVQPGFHEEFYDWFVRQVSTGVGGG
notes: on phage
B24: 20E2A-3-A3-IGFR (peptide)
peptide: GHYFGSFYDAIDQLVAGMLPG
notes: as for B11
B25: 20E2B-4-H8-IGFR (peptide)
peptide: PAGPCGFYCGLGLLLHGDQSP
notes: on phage
B26: B6Hα-3-E6-IR (peptide)
peptide: CGAKMTGTPNDPFYHKLSELLQRG
notes: as for B11
B27: B6Hα-3-F10-IR (peptide)
peptide: GCVVEWQKWHGASDPFYHKLSELGGCS
notes: on phage
B28: H2CA-3-D8-IGFR (peptide)
peptide: NYRRQVFNGNFYDWFDRQVFSLVTPG
notes: on phage
B29: B6Hα-2-D1-IR (peptide)
peptide: GCEVIVEEGDSADPFYHKLSELCQGS
notes: on phage
B30: B6Hα-2-D8-IR (peptide)
peptide: SSETAKMVTGTRDDPFYHKLSELVQGS
notes: as for B11
B31: 20E2Bβ-3-C7-IR (peptide)
peptide: QSGSGDFYDWLSRLIRGNGDG
notes: as for B11
B32: 20E2A-3-A4-IGFR (peptide)
peptide: AGSVTSFYDAMEQLVATGTSA
notes: as for B11
B33: H2CA-1-A7-IGFR (peptide)
peptide: RCGRELYHSTFYDWFDRQVAGRTCPS
notes: on phage
B34: H2CA-2-B3-IGFR (peptide)
peptide: PPLASDLDVQFYGWFVQQVSPPGRGG
notes: on phage
B35: B6Hα-3-E8-IR (peptide)
peptide: RGKTAAVIVGRPADPFYHKLSELLQGG
notes: on phage
B36: NNRPγ-4-A7-IR (peptide)
peptide: RFDPFYSYFVNLLGASA
notes: on phage
B37: B6L-4-D7-IR (peptide)
peptide: AETSVQVGWIRLQSVWPGEHWNTVDPFYHKLSELLRGSGA
notes: on phage
B38: H2CA-4-F10-IGFR (peptide)
peptide: VNQSGSIHENFYDWFERQVSHQRGVR
notes: on phage
B39: 20E2A-3-D10-IGFR (peptide)
peptide: MMVVDGFYDALHQLVVAQSLG
notes: on phage
B40: B6Hα-3-E5-IR (peptide)
peptide: RCGDEEGWQENRRDDPFYHKLSELFGGC
notes: as for B11
B41: H2CA-2-B2-IGFR (peptide)
peptide: GAPVDQLHEDFYDWFVRQVSQAATG
notes: on phage
B42: H2CA-2-B4-IGFR (peptide)
peptide: CCLLCRFQQNFYDWFVCQGISRLRPL
notes: on phage
B43: H2CA-3-C6-IGFR (peptide)
peptide: SSCDGAGHESFYEWFVRQVSGCRSV
notes: on phage
B44: H2CA-4-G11-IGFR (peptide)
peptide: TLDGGSFEEQFYDWFVRQLSYRTNPD
notes: on phage
B45: 20E2A-4-G11-IGFR (peptide)
peptide: MNVFVSFYDAIDQLVCQRIGC
notes: as for B11
B46: H2CA-2-B9-IGFR (peptide)
peptide: RAGSSDFHEDFYEWFVRQVSLSLKGK
notes: on phage
B47: H2CA-4-F6-IGFR (peptide)
peptide: AVRATRFDEAFYDWFVRQISDGQGNK
notes: on phage
B48: B6Hα-1-A3-IR (peptide)
peptide: SRAKVEAEMPDSGDPFYHKLSELLASG
notes: on phage
B49: H2CA-3-D6-IGFR (peptide)
peptide: QSPVGSSHEDFYDWFFRQVAQSGAHQ
notes: on phage

Assays:
[1] = target: T1, soluble IGF-1R (recombinant human IGF-1R extracellular domain, R&D Systems Cat. # 391-GR/CF) (human, UniProt P08069 31-935); assay: phage ELISA
T1 construct: extracellular domain; Bought protein; coated on plates (phage ELISA, TRF) or Eu-labelled (TR-FRET); also called sIGF-1R; rhIGF-1R

[2] = target: T2, soluble human insulin receptor-immunoglobulin heavy chain chimera (human, UniProt P06213 28-956, limits assumed); assay: phage ELISA
T2 construct: extracellular domain; also called sIR-Fc; IR (prepared according to Bass et al., 1996); not shown: immunoglobulin heavy chain constant domains (Bass et al., 1996)

[3] = target: T3, Soluble IGF-1R (R&D Systems, Cat. # 391-GR/CF) (human, UniProt P08069 31-935); assay: phage ELISA, receptor coated on plate; A405 over non-fat milk
T3 construct: extracellular domain; the precursor is cleaved into alpha and beta subunits; also called sIGF-1R

[4] = target: T4, Insulin receptor prepared according to Bass et al., 1996 (soluble IR-immunoglobulin chimera) (human, UniProt P06213 28-956); assay: as above
T4 construct: extracellular domain; also called sIR-Fc; soluble IR (Bass construct); not shown: immunoglobulin constant domains replacing the transmembrane and intracellular domains

| Binder | ratio over background [1] [ratio] | ratio over background [2] [ratio] | ratio over background (IGF-1R) [3] [fold over background] | ratio over background (IR) [4] [fold over background] |
| --- | --- | --- | --- | --- |
| B1 | 4.4 | 0.9 |  |  |
| B2 | 5.2 | 0.9 |  |  |
| B3 | 3.2 | 0.8 |  |  |
| B4 | 17.8 | 2.6 |  |  |
| B5 | 10.9 | 1.8 |  |  |
| B6 | 3.8 | 0.8 |  |  |
| B7 | 10 | 1.4 |  |  |
| B8 | 5.6 | 1.3 |  |  |
| B9 | 20.4 | 3.3 |  |  |
| B10 | 5.8 | 1.1 |  |  |
| B11 |  |  | 3.2 | 1.1 |
| B12 | 4.3 | 1.1 |  |  |
| B13 | 6.1 | 0.9 |  |  |
| B14 | 3.5 | 0.9 |  |  |
| B15 |  |  | 3.1 | 1 |
| B16 | 33.9 | 8.2 |  |  |
| B17 | 4.5 | 0.6 |  |  |
| B18 | 7.7 | 1.3 |  |  |
| B19 | 3 | 0.8 |  |  |
| B20 | 5.4 | 1.1 |  |  |
| B21 | 9.5 | 0.6 |  |  |
| B22 | 6.1 | 1.7 |  |  |
| B23 | 4.1 | 1 |  |  |
| B24 |  |  | 3 | 1.5 |
| B25 | 5.3 | 0.9 |  |  |

| Binder | ratio over background [1] [ratio] | ratio over background [2] [ratio] | ratio over background (IGF-1R) [3] [fold over background] | ratio over background (IR) [4] [fold over background] |
| --- | --- | --- | --- | --- |
| B26 |  |  | 2.3 | 1.2 |
| B27 | 8.8 | 1.9 |  |  |
| B28 | 7.2 | 1.8 |  |  |
| B29 | 5.4 | 1.3 |  |  |
| B30 |  |  | 3 | 1 |
| B31 |  |  | 3.1 | 1.5 |
| B32 |  |  | 2.5 |  |
| B33 | 2.2 | 0.6 |  |  |
| B34 | 3.8 | 1 |  |  |
| B35 | 5.3 | 1.1 |  |  |
| B36 | 6.3 | 1.3 |  |  |
| B37 | 4.8 | 1.4 |  |  |
| B38 | 5.7 | 1 |  |  |
| B39 | 6.9 | 1.8 |  |  |
| B40 |  |  | 2.9 | 1 |
| B41 | 3.4 | 1 |  |  |
| B42 | 4.1 | 1.1 |  |  |
| B43 | 5.6 | 1.2 |  |  |
| B44 | 9.5 | 2.5 |  |  |
| B45 |  |  | 3.3 | 1.3 |
| B46 | 7 | 1.7 |  |  |
| B47 | 7.3 | 1.1 |  |  |
| B48 | 2.6 | 0.8 |  |  |
| B49 | 9 | 2.2 |  |  |
